Measured values: patent publication US20060272037A1 (JULIUS MAXIMILIANS UNIVERSITAT, published 2006)

Legend:
[1] = target: T1, PTH receptor-cam8 "chameleon" (human); test: competition ligand binding, receptor stably expressed in HEK293 cells
T1 construct: Stably expressed in HEK293 cells; also tested in membranes made from these cells; also called PTHR-cam; PTHR-cam8

[2] = target: T1, PTH receptor-cam8 "chameleon"; test: cell-based or functional assay

T1 sequence (chain, as listed by the source limits assumed): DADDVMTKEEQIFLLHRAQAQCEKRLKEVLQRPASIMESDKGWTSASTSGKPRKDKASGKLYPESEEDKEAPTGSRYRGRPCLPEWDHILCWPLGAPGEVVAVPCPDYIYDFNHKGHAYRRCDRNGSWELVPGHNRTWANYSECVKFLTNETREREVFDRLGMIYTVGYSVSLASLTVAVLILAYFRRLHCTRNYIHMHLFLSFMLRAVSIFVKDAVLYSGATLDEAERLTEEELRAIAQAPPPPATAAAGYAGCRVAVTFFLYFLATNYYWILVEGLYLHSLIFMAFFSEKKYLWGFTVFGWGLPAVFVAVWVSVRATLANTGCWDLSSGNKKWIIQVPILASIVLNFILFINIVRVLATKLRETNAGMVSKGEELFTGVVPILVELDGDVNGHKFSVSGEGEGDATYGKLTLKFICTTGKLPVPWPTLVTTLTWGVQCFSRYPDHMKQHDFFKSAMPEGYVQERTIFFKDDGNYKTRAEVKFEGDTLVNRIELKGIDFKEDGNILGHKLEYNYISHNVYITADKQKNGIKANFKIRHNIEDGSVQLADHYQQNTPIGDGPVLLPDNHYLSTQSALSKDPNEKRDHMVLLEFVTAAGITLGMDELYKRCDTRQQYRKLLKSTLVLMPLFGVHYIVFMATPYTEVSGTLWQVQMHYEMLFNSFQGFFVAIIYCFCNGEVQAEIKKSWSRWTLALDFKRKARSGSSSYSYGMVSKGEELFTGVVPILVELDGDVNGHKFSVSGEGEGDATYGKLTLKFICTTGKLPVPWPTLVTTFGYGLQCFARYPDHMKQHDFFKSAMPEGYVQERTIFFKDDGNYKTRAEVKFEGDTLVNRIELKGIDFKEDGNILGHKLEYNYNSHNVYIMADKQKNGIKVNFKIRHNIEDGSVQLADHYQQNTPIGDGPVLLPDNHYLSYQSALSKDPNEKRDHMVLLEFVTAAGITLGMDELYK

## SVSEIQLMHNLGKHLNSMERVEWLRKKLQDVHNF (peptide, UniProt P01270 32-65, looked up) [parathyroid hormone (PTH)]
[1]
  Ki: 15.5 nM
[2]
  EC50 of signalling to adenylyl cyclase: 12.8 nM
